Read-outs that look alike come from different tables or passages of the source.
B1: PiTTA: TTA, SEQ ID NO: 31, Pseudomonas sp. Irchel s3a18 (protein)
chain: MKQDESNVGPVIDWLAQTLGQDYKYRQDTLSLTANENYPSELVRLTSGSTAGAFYHCSFPFPVPLGEWHFPEPGQMNEIADDLRGLAKRMMGAQAFDWRPNGGSPAEQALMLAACKQGEGFVHFAHRDGGHFALEQLATKMGIEIFHLPVDPQSLLIDVAKLDDMVRRNPHIRIVILDQSFKLRWQPLAEIRAILPDSCTLTYDMSHDGGLILGGVFDSPLACGADIAHGNTHKTIPGPQKGFIAFKSAQHPLLVETSLWVCPHLQSNCHAELLPSMWAAFKEMEAFGPAYAHQMVRNAKALANQLHELGLNVSGESFGFTETHQVHFAVGDLQQALSMCVDSLHAGGIRSTNIEIPGKPGMHGIRLGVQAMTRRGMKEDDFRRVAGLIADLYFKRTEPARVASKVKELLGDFPLAPLAYSFDQQIDESRRRLLERGIQR
modifications: Pseudomonas_sp._Irchel_s3a18
notes: Irchel s3a18
B2: CsTTA: TTA, SEQ ID NO: 33, Chitiniphilus shinanonensis (protein, listed as Chitiniphilus shinanonensis)
chain: MTRTTPQARHVVERLNSVLGQDYRYREDCLSLTANENYPSALVRLAGSATAGAFYHCSFPFEVPPGEWYFPESGRMGELAQQLNELGRSLLGAGTFDWRPNGGSPAEQALMLAACKHGEGMVHFAHRDGGHFALENLAQKAGIDIFHLPVDPQTLLIDVARLDELVRRNPQIRIVILDQSFKLRWQPLAAIRKVLPPSCTLTYDTSHDGGLIMGGVFDSPLHCGADVIHGNTHKTVPGPQKGYIAFKSAEHPLLVDTSLWLCPHLQSNCHAELLPPMWVAFKEMEAFGHDYAPQVARNAKALAGHLHRLGFEVSGEAFGFTETHQVHFAVGDLQQALDLCMNTLHRGGIRSTNIEIPGKPGIQGIRLGVQAMTRRGLREDDFEQVARFIADLHFRKADPAGVAAQVAEFLRAFPLAPLHYSFDQELDHELLQSLIGEALR
B3: BuTTA: TTA, SEQ ID NO: 34, Burkholderia ubonensis (protein, listed as Burkholderia ubonensis)
chain: MTDFAQAVVNPFVDEQRKSRLVEKISNIFDSLHSDFALDNLYRASHLSLTASENYPSRFVRTLGAGMQGGFYEFAPPYAANPGEWYFPDSGAQSSLVEKLASLGKQLFEANSFDWRPNGGSAAEQAVLLGTCARGDGFVHFAHKDGGHFALEELAQKVGVSIFHLPIEEKSLLIDVDRLATLIKDNPHIKLVILDQSFKLRWQPLLQIRQALPESVVLSYDASHDGGLIIGECLPQPLLFGADIVHGNTHKTIPGPQKGYIAFKNVDHPAMKHVSDWVCPHLQSNSHAELIAPMYIALVEMSLYGRSYAEQVIKNAKALAHALHAEGVRVSGESFGFTETHQVHVVVGSERKALELVTGTLALAGIRCNNIEIPGANGLFGLRLGVQALTRRGIKEHGMAEVARFLVRLILKNESPTAIRNEIASFLESYPINTLHYSLDAHYYTPSGIKLMEEVIA
B4: KaTTA: L-threonine transaldolase, SEQ ID NO: 1, Kitasatospora aureofaciens, WP_033354341 (protein, listed as Kitasatospora aureofaciens)
chain: MDVLAALERKHSLNLFPIENRLSPRAAAALASDAVNRYPYSETDVAVYGDVSDLNAVYDHCVSLTKEFYGARHAYVQFLSGLHTMHTVLTAVTPPGGRVMVIAPEDGGHYATVTICQGFGYRVEYVPFDRQTLEIDYTALAERTAEHPADVIYLDASTVLRMPDARALRAAAPGAVLCLDASHLLGLLPAAPGTLVLDAGFDSISGSTHKTLPGPQKGLLVTNSDAIAEQVGARIPFTASSSHSASVGSLAITLEELLPHRGDYARQVIANARELARQLAARGFDVAGEAFGFTDTHQVWVHHPEGNTPHEWGRLLTATDIRTTTVVLPSTARSGLRLGTQELTRWGMKEDDMTTVAELLARLLLRGEQSRSVAADVRDLARSFPGVAFADRPAPLAVA
B5: ObiH: known L-threonine transaldolase of obafluorin biosynthesis, SEQ ID NO: 30, Pseudomonas fluorescens, ARJ35753.1 (protein)
chain: MSNVKQQTAQIVDWLSSTLGKDHQYREDSLSLTANENYPSALVRLTSGSTAGAFYHCSFPFEVPAGEWHFPEPGHMNAIADQVRDLGKTLIGAQAFDWRPNGGSTAEQALMLAACKPGEGFVHFAHRDGGHFALESLAQKMGIEIFHLPVNPTSLLIDVAKLDEMVRRNPHIRIVILDQSFKLRWQPLAEIRSVLPDSCTLTYDMSHDGGLIMGGVFDSPLSCGADIVHGNTHKTIPGPQKGYIGFKSAQHPLLVDTSLWVCPHLQSNCHAEQLPPMWVAFKEMELFGRDYAAQIVSNAKTLARHLHELGLDVTGESFGFTQTHQVHFAVGDLQKALDLCVNSLHAGGIRSTNIEIPGKPGVHGIRLGVQAMTRRGMKEKDFEVVARFIADLYFKKTEPAKVAQQIKEFLQAFPLAPLAYSFDNYLDEELLAAVYQGAQR
modifications: Psuedomonas fluorescenes

What was measured:
[1] = TTA-ADH coupled assay, screen of purified TTAs on 2-nitro-benzaldehyde; assay type: biochemical; settings: substrate 3, TTA-ADH coupled assay
Experimental: (§1) High-throughput screening of purified TTAs was performed with a TTA-ADH coupled assay using purified TTA and commercially available alcohol dehydrogenase from S. cerevisiae purchased from MilliporeSigma. Aldehyde stocks were prepared in 50-100 mM solutions in DMSO or acetonitrile. Reaction mixtures were prepared in a 96-well plate with 100 μL of 100 mM phosphate buffer pH 7.5, 0.5 mM NADH, 0.4 mM PLP, 15 mM MgCl2, and 100 mM L-Thr with the addition of 0.25 mM to 1 mM aldehyde depending on the background absorbance at 340 nm (Table 4), 10 U ScADH, and 0.25 μM purified TTA unless otherwise specified. Reactions were initiated with the addition of enzyme. […] The following controls were included for every assay: reaction mixture without aldehyde, without TTA, and without enzyme (TTA or ADH). Rates were calculated by identifying the linear region at the beginning of the kinetic run and converting the depletion in absorbance to the depletion of mM NADH using an NADH standard curve.
Once purified, we identified the putative TTAs with high activity and further characterized them for their L-Thr affinity and substrate scope. We first screened each purified enzyme using the TTA-ADH coupled assay with 2-nitro-benzaldehyde, 3, the best performing substrate from the screen of ObiH that was not a substrate of the ScADH. […] With this evidence as well as well-aligned, predicted AlphaFold structures, we assumed the impact of the SUMO tag would be minimal for all TTAs screened and moved forward with additional enzyme characterization.

[2] = TTA-ADH coupled assay at different L-Thr concentrations (apparent L-Thr KM and kcat); assay type: biochemical; settings: for L-Thr kcat compared with ObiH: phenylacetaldehyde as the aldehyde substrate; for Km: apparent, phenylacetaldehyde (14) as aldehyde, ADH coupling, non-linear regression
Experimental: as §1
We next sought to determine the affinity of these enzymes for L-Thr, which we obtained by performing the TTA-ADH coupled assay at different L-Thr concentrations (FIG. 16b). […] Two differences between our assays were the substrate, phenylacetaldehyde (14) instead of 4-nitrophenylacetylaldehyde (15), and the assay format, ADH coupling rather than a discontinuous HPLC assay. Because a live cellular environment would also contain alcohol dehydrogenases for reduction of acetaldehyde, it is possible that the KM values that we are measuring using the TTA-ADH coupled assay may be more realistic for our envisioned applications.

[3] = TTA-ADH coupled assay, substrate scope of TTAs on aromatic aldehydes; assay type: biochemical; settings: for activity on a set of aromatic aldehyde substrates (substrate scope): substrates 1, 3, 6, 7, 8, 12, 15
Experimental: as §1
We specifically selected substrates with ring substituents with different electron withdrawing properties (1, 3, 6, 7, 8), substituent size (12), and aldehyde chain length (15) to compare the activity of the putative TTAs to ObiH. We were also encouraged by the activity of PbTTA and KaTTA on vanillin and protocatechualdehyde which are substrates that would form products like commercially available therapeutic, Droxidopa (FIG. 18).
To explore the possibility that DbTTA and TmTTA are TTAs active on other related aldehydes, we sought to examine their activity with L-Thr and aldehyde substrates with different ring substituent position (2), bulkier, hydrophobic chemistry (10), and aldehyde chain length (14) using the TTA-ADH coupled assay.

[4] = In vitro assay over 20 h with HPLC analysis (amino acid substrate specificity, diastereomeric excess); assay type: biochemical; settings: 3 as aldehyde substrate
Experimental: Metabolites of interest were quantified via high-performance liquid chromatography (HPLC) using an Agilent 1260 Infinity model equipped with a Zorbax Eclipse Plus-C18 column. To quantify aldehyde and β-OH-nsAAs, an initial mobile phase of solvent A/B=95/5 was used (solvent A, water+0.1% TFA; solvent B, acetonitrile+0.1% TFA) and maintained for 5 min. A gradient elution was performed (A/B) as follows: gradient from 95/5 to 50/50 for 5-12 min, gradient from 50/50 to 0/100 for 12-13 min, and gradient from 0/100 to 95/5 for 13-14 min. A flow rate of 1 mL min-1 was maintained, and absorption was monitored at 210, 250 and 280 nm.
We performed an in vitro assay over 20 h using 3 as the aldehyde substrate and either L-Thr, Glycine (Gly), or L-Serine (L-Ser) as the candidate amino acid. Since the TTA-ADH coupled assay is specific to L-Thr, we analyzed TTA activity via HPLC with a chemically synthesized β-OH-nsAA standard for the assumed product from 3.

[5] = literature value; ObiH: 4-nitrophenylacetylaldehyde (15), discontinuous HPLC assay; read-out: reported L-Thr KM; cited from earlier work

Molecule | activity on 2-nitro-benzaldehyde relative to ObiH [1] | L-Thr kcat compared with ObiH [2] | activity on a set of aromatic aldehyde substrates (substrate scope) [3] | β-OH-nsAA formation using L-Ser or Gly [4] | Km [2] | activity on vanillin and protocatechualdehyde ([3]; TTA-ADH coupled assay) | Km [5]
B1 | comparable to or better than ObiH | higher measured L-Thr kcat values than ObiH | relatively selective | no β-OH-nsAA formation | – | – | –
B2 | comparable to or better than ObiH | higher measured L-Thr kcat values than ObiH | – | no β-OH-nsAA formation | – | – | –
B3 | comparable to or better than ObiH | higher measured L-Thr kcat values than ObiH | relatively selective | no β-OH-nsAA formation | – | – | –
B4 | comparable to or better than ObiH | – | – | no β-OH-nsAA formation | 19.1 mM | activity | –
B5 | – | – | – | – | 29.5 mM | – | 40.2 ± 3.8 mM

Source: US20250215467A1, “L-THREONINE TRANSALDOLASES AND USES THEREOF” (University of Delaware, priority 2022, published 2025)
